Source: paper PMC3797037, “Structural and Mechanistic Insight into DNA Unwinding by Deinococcus radiodurans UvrD” (PLoS ONE, 2013)
Residue numbers refer to the chain shown, from its start.

Key:
drUvrD FL (WT) [1] = molecular target: T1, drUvrD FL (WT) (Deinococcus radiodurans, UniProt Q9RTI9 1-745); assay: X-ray crystallography (4.0 Å); AMPPNP, P21; Fluorescence anisotropy: buffer A (composition not in material) + 0.05% Tween 20, 0.1 mg/mL BSA, 1 mM AMPPNP; 2.5 nM DNA, 0-8 µM protein, 80 µl, room temperature; single-site fit; details: protein: recombinant; tags: N-terminal His-tag cleaved with TEV (pET151d); 21 bp duplex, 3' overhang 7 nt (dT7) at both ends
T1 sequence: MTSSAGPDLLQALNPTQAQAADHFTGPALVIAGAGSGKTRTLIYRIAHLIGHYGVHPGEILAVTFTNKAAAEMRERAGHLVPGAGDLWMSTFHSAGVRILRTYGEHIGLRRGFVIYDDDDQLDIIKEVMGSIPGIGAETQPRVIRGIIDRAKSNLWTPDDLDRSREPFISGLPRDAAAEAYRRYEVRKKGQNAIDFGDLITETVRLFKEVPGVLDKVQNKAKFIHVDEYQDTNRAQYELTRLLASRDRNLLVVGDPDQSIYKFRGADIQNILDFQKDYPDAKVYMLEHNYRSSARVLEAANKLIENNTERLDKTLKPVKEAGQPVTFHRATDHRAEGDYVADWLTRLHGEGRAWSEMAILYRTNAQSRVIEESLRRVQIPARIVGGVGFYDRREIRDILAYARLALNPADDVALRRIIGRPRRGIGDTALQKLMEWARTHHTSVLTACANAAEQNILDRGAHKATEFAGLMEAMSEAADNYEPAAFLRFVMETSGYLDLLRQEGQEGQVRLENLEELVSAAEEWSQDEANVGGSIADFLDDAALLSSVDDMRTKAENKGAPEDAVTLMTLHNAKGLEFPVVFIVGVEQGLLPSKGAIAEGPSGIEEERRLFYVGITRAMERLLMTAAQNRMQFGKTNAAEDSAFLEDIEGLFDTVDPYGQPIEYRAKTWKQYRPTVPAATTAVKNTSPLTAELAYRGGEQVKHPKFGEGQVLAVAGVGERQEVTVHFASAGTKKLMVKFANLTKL

drUvrDΔC [2] = molecular target: T2, drUvrDΔC (Deinococcus radiodurans, UniProt Q9RTI9 1-665, del666-745); assay: X-ray crystallography (2.5 Å); AMPPNP, form I, P212121; Fluorescence anisotropy: buffer A (composition not in material) + 0.05% Tween 20, 0.1 mg/mL BSA, 1 mM AMPPNP; 2.5 nM DNA, 0-8 µM protein, 80 µl, room temperature; single-site fit; details: protein: recombinant; tags: N-terminal His-tag cleaved with TEV (pET151d); chain copies: 2; 18 bp duplex, 3' overhang 7 nt (dT7) at both ends
T2 sequence: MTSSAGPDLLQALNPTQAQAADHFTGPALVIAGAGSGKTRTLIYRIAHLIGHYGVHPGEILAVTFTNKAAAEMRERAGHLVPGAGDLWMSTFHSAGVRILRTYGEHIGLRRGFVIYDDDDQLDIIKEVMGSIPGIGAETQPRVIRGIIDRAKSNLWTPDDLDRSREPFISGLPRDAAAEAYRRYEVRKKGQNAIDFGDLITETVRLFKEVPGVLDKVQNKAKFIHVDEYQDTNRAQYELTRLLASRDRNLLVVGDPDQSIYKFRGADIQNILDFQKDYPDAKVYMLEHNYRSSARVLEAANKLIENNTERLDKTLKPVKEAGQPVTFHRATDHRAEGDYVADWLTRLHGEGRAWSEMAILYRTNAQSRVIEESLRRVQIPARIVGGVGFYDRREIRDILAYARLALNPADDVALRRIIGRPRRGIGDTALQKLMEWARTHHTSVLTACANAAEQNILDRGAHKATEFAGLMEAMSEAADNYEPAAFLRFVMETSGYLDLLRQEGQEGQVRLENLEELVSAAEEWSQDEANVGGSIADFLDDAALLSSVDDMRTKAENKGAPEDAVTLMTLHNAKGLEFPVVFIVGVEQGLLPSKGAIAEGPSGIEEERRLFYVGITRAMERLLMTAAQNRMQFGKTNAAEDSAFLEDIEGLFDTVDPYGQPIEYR

drUvrD FL (WT) [3] = molecular target: T1, drUvrD FL (WT); assay: fluorescence anisotropy; 1 mM AMPPNP; Fluorescence anisotropy: buffer A (composition not in material) + 0.05% Tween 20, 0.1 mg/mL BSA, 1 mM AMPPNP; 2.5 nM DNA, 0-8 µM protein, 80 µl, room temperature; single-site fit; details: protein: recombinant, tags: N-terminal His-tag cleaved with TEV (pET151d), label: fluorescein (internal dT12), 25 bp duplex, other end blunt
drUvrD G426T = molecular target: T3, drUvrD G426T (Deinococcus radiodurans, UniProt Q9RTI9 1-745, G426T); assay: fluorescence anisotropy; 1 mM AMPPNP; not significantly different from WT; Fluorescence anisotropy: buffer A (composition not in material) + 0.05% Tween 20, 0.1 mg/mL BSA, 1 mM AMPPNP; 2.5 nM DNA, 0-8 µM protein, 80 µl, room temperature; single-site fit; details: protein: recombinant, tags: N-terminal His-tag cleaved with TEV (pET151d), label: fluorescein (internal dT12), 25 bp duplex, other end blunt
T3 sequence: T1 sequence with G426T

[4] = substrate: Nc1ncnc2c1ncn2[C@@H]1O[C@H](COP(=O)(O)OP(=O)(O)OP(=O)(O)O)[C@@H](O)[C@H]1O; assay: spectrophotometric ATPase assay; format: biochemical, Deinococcus radiodurans; details: ssDNA-stimulated: excess 25mer polydT (10xKssDNA), ATP 0-1 mM, 100 nM enzyme, 5 mM MgCl2, 100 mM NaCl, pH 8.0, 25°C
Text: spectrophotometric ATPase assay on drUvrD^∆C | ATPase data measured on drUvrD^FL and drUvrD^∆C

[5] = substrate: Nc1ncnc2c1ncn2[C@@H]1O[C@H](COP(=O)(O)OP(=O)(O)OP(=O)(O)O)[C@@H](O)[C@H]1O; assay: spectrophotometric ATPase assay; format: biochemical, Deinococcus radiodurans; details: ssDNA-stimulated: excess 25mer polydT (10xKssDNA), ATP 0-1 mM, 100 nM enzyme, 5 mM MgCl2, 100 mM NaCl, pH 8.0, 25°C; remark: listed apart in the source
Text: spectrophotometric ATPase assay on drUvrD^FL | determine their apparent turnover rates (Kcat) for ATP hydrolysis, along with their Km for ATP

drUvrDΔC [6] = molecular target: T2, drUvrDΔC; assay: X-ray crystallography (3.0 Å); fluorescein-dT21 DNA; Fluorescence anisotropy: buffer A (composition not in material) + 0.05% Tween 20, 0.1 mg/mL BSA, 1 mM AMPPNP; 2.5 nM DNA, 0-8 µM protein, 80 µl, room temperature; single-site fit; details: protein: recombinant; tags: N-terminal His-tag cleaved with TEV (pET151d); chain copies: 2; label: fluorescein (internal dT21); 18 bp duplex, 3' overhang 7 nt at both ends
[7] = 3' overhang 15 nt (dT15) on strand 2
[8] = 5' overhang 15 nt (dT15) on strand 2

B1: For28/Rev28 (dsDNA)
DNA 1: GCAGTGCTCGCAGGTCGTACCTTTTTTT
DNA 2: GGTACGACCTGCGAGCACTGCTTTTTTT
- binding result (drUvrD FL (WT) [1]): binds

B2: For25/Rev25 (dsDNA)
DNA 1: GCAGTGCTCGCAGGTCGTTTTTTTT
DNA 2: ACGACCTGCGAGCACTGCTTTTTTT
- binding result (drUvrDΔC [2]): binds

B3: 3'-tailed dsDNA (H1T12/H3-15) (dsDNA)
DNA 1: TCGGTACGACCTGCGAGCACTGCTT
DNA 2: AAGCAGTGCTCGCAGGTCGTACCGATTTTTTTTTTTTTTT
modifications: fluorescein-dT at position 12 of strand 1
- Kd (drUvrD FL (WT) [3]; [7]): 360 nM
- binding result (drUvrD G426T; [7]): binds

B4: 5'-tailed dsDNA (H1T12/H5-15) (dsDNA)
DNA 1: TCGGTACGACCTGCGAGCACTGCTT
DNA 2: TTTTTTTTTTTTTTTAAGCAGTGCTCGCAGGTCGTACCGA
modifications: fluorescein-dT at position 12 of strand 1
- Kd (drUvrD FL (WT) [3]; [8]): 480 nM
- binding result (drUvrD G426T; [8]): binds

B5: drUvrD^∆C (Deinococcus radiodurans R1 = ATCC 13939 = DSM 20539) (protein)
chain: T2 sequence
notes: C-terminally truncated, missing residues 666-745; pET151d, E. coli BL21 (DE3), N-terminal His-tag cut with TEV protease; crystallized as a monomer, two per DNA duplex
- Km [4]: 77.0 ± 16.9 µM
- kcat [4]: 213.2 ± 11.7 s⁻¹

B6: drUvrD^FL (Deinococcus radiodurans R1 = ATCC 13939 = DSM 20539) (protein)
chain: T1 sequence
notes: full-length (residues to 745), pET151d, E. coli BL21 (DE3), N-terminal His-tag cut with TEV protease; crystallized as a monomer, two per DNA duplex
- Km [5]: 62.1 ± 6.6 µM
- kcat [5]: 149.3 ± 3.5 s⁻¹

B7: For25-21F/Rev25-21F (dsDNA)
DNA 1: GCAGTGCTCGCAGGTCGTTTTTTTT
DNA 2: ACGACCTGCGAGCACTGCTTTTTTT
modifications: fluorescein-dT at position 21 of both strands
- binding result (drUvrDΔC [6]): binds
